{
  "source": "paper doi:10.1101/2021.07.28.454260",
  "biological_target": "HupA fused to a split luciferase fragment (positive control of the assay)",
  "assay": "split reporter",
  "data": [
    {"substance": "HupA fused to a split luciferase fragment (positive control of the assay) (natural protein)", "values": [
      {"measurement": "increase in luminescence signal after 1 hour of induction", "value": "> 2"}
    ]}
  ]
}
